Assays:
[1] = Time course in vivo study of LNP, serum G-CSF or EPO by ELISA; settings: mice IV
Experimental: (§1) Formulations, listed in Table 31, were characterized by particle size, zeta potential, and encapsulation.
LNP formulations, shown in Table 31 (above), were administered to mice (n=5) intravenously (IV) at a single modified mRNA dose of 0.5, 0.05 or 0.005 mg/kg. The mice were bled at 8 hours, 24 hours, 72 hours and 6 days after they were administered with G-CSF or EPO modified mRNA formulations to determine protein expression using ELISA.

[2] = test system: HEK293 cells
Experimental: Human embryonic kidney epithelial (HEK293) cells were seeded on 96-well plates at a density of 30,000 cells per well in 100 ul cell culture medium. 250 ng of modified G-CSF mRNA (SEQ ID NO: 6; polyA tail of approximately 160 nucleotides not shown in sequence; 5′cap, Cap1) formulated with RNAiMAX™ (Invitrogen, Carlsbad, Calif.) was added to a well. The G-CSF was completely modified with 5mC and pseudoU (100% modification), not modified with 5mC and pseudoU (0% modification) or was partially modified with 5mC and pseudoU so the mRNA would contain 75% modification, 50% modification or 25% modification. Control samples (AH 5/2, mCherry (SEQ ID NO: 7; polyA tail of approximately 160 nucleotides not shown in sequence; 5′cap, Cap1; fully modified 5mC and pseudoU) and untreated) were also analyzed. […] The supernatants were harvested after 16 hours and the secreted G-CSF protein was analyzed by ELISA.

[3] = Non-human primate serum chemistry: alanine transaminase (ALT), aspartate transaminase (AST); format: in vivo, cynomolgus monkey; settings: for Aspartate Transaminase (AST): Female NHP; for Alanine Transaminase (ALT): Male NHP
[4] = Non-human primate in vivo study, serum G-CSF or EPO by ELISA; set-up: species or system cynomolgus monkey; settings: for Female NHP Serum Concentration / Male NHP Serum Concentration: G-CSF LNP, 0.05 mg/kg IV
Experimental: as §1
LNP formulations, shown in Table 31 (above), were administered to non-human primates (NHP) (cynomolgus monkey) (n=2) as a bolus intravenous injection (IV) over approximately 30 seconds using a hypodermic needle, which may be attached to a syringe/abbocath or butterfly if needed. The NHP were administered a single modified mRNA IV dose of 0.05 mg/kg of EPO or G-CSF or 0.005 mg/kg of EPO in a dose volume of 0.5 mL/kg. The NHPs were bled 5-6 days before dosing with the modified mRNA LNP formulations to determine protein expression in the serum and a baseline complete blood count. After administration with the modified mRNA formulation the NHP were bled at 8, 24, 48 and 72 hours to determined protein expression. At 24 and 72 hours after administration the complete blood count of the NHP was also determined. Protein expression of G-CSF and EPO was determined by ELISA. Urine from the NHPs was collected over the course of the entire experiment and analyzed to evaluate clinical safety. Samples were collected from the NHPs after they were administered with G-CSF or EPO modified mRNA formulations to determine protein expression using ELISA. Clinical chemistry, hematology, urinalysis and cytokines of the non-human primates were also analyzed.

[5] = test system: IFN-alpha; test: Cytokine study PBMC, IFN-alpha production ELISA; format: cell-based; settings: human PBMC, Lipofectamine 2000
Experimental: The plates were then incubated at 37 C.
Each condition was done in duplicate
Shown in Tables 69 and 70 are the average from 2 separate PBMC donors of the G-CSF and IFN-alpha production over time as measured by specific ELISA.

[6] = Human G-CSF modified RNA lipoplex I.M., S.C., I.V., serum human G-CSF ELISA 6 hours; format: in vivo, C57/BL6 mice; settings: lipoplexed 30% RNAIMAX
Experimental: 6 hours after administration of a formulation, serum was collected from each mouse to measure the amount of human G-CSF protein in the mouse serum by human G-CSF ELISA and the results are shown in Table 54.

B1: G-CSF: human G-CSF mRNA, SEQ ID NO: 6, polyA about 160 nt, Cap1, fully modified with 5-methylcytosine and pseudouridine (nucleic acid, listed as Homo sapiens)
chain: GGGAAAUAAGAGAGAAAAGAAGAGUAAGAAGAAAUAUAAGAGCCACCAUGGCCGGUCCCGCGACCCAAAGCCCCAUGAAACUUAUGGCCCUGCAGUUGCUGCUUUGGCACUCGGCCCUCUGGACAGUCCAAGAAGCGACUCCUCUCGGACCUGCCUCAUCGUUGCCGCAGUCAUUCCUUUUGAAGUGUCUGGAGCAGGUGCGAAAGAUUCAGGGCGAUGGAGCCGCACUCCAAGAGAAGCUCUGCGCGACAUACAAACUUUGCCAUCCCGAGGAGCUCGUACUGCUCGGGCACAGCUUGGGGAUUCCCUGGGCUCCUCUCUCGUCCUGUCCGUCGCAGGCUUUGCAGUUGGCAGGGUGCCUUUCCCAGCUCCACUCCGGUUUGUUCUUGUAUCAGGGACUGCUGCAAGCCCUUGAGGGAAUCUCGCCAGAAUUGGGCCCGACGCUGGACACGUUGCAGCUCGACGUGGCGGAUUUCGCAACAACCAUCUGGCAGCAGAUGGAGGAACUGGGGAUGGCACCCGCGCUGCAGCCCACGCAGGGGGCAAUGCCGGCCUUUGCGUCCGCGUUUCAGCGCAGGGCGGGUGGAGUCCUCGUAGCGAGCCACCUUCAAUCAUUUUUGGAAGUCUCGUACCGGGUGCUGAGACAUCUUGCGCAGCCGUGAAGCGCUGCCUUCUGCGGGGCUUGCCUUCUGGCCAUGCCCUUCUUCUCUCCCUUGCACCUGUACCUCUUGGUCUUUGAAUAAAGCCUGAGUAGGAAG
modifications: Cap1; polyA; 5-methylcytosine, pseudouridine
[1]; LNP NPA-030-2, 0.005 mg/kg, 8 hours
  G-CSF Serum Concentration: 1,550.6 pg/ml
[1]; LNP NPA-030-2, 0.005 mg/kg, 24 hours
  G-CSF Serum Concentration: 5,068.9 pg/ml
[1]; LNP NPA-030-2, 0.05 mg/kg, 8 hours
  G-CSF Serum Concentration: 462,312.5 pg/ml
[1]; LNP NPA-030-2, 0.05 mg/kg, 24 hours
  G-CSF Serum Concentration: 80,903.8 pg/ml
[1]; LNP NPA-030-2, 0.5 mg/kg, 8 hours
  G-CSF Serum Concentration: >1,250,000 pg/ml
[1]; LNP NPA-030-2, 0.5 mg/kg, 24 hours
  G-CSF Serum Concentration: 495,812.5 pg/ml
[1]; LNP NPA-030-2, 0.5 mg/kg, 72 hours
  G-CSF Serum Concentration: 1,325.6 pg/ml
[1]; LNP, 0.005 mg/kg and 0.05 mg/kg
  time out to which protein expression was detectable: 72 h
[2]
  half-life of mRNA: 8 to 10 h
[3]; 0.005 mg/kg, 2 days
  Aspartate Transaminase (AST): 34 U/L
  Alanine Transaminase (ALT): 39 U/L
[3]; 0.005 mg/kg, 4 days
  Aspartate Transaminase (AST): 36 U/L
  Alanine Transaminase (ALT): 48 U/L
[3]; 0.005 mg/kg, 7 days
  Aspartate Transaminase (AST): 31 U/L
  Alanine Transaminase (ALT): 29 U/L
[3]; 0.005 mg/kg, 14 days
  Aspartate Transaminase (AST): 20 U/L
  Alanine Transaminase (ALT): 44 U/L
[3]; 0.005 mg/kg, Pre-dose
  Aspartate Transaminase (AST): 54 U/L
  Alanine Transaminase (ALT): 43 U/L
[3]; 0.05 mg/kg, 1 days
  Aspartate Transaminase (AST): 34 U/L
[3]; 0.05 mg/kg, 4 days
  Aspartate Transaminase (AST): 42 U/L
  Alanine Transaminase (ALT): 88 U/L
[3]; 0.05 mg/kg, 7 days
  Aspartate Transaminase (AST): 52 U/L
  Alanine Transaminase (ALT): 73 U/L
[3]; 0.05 mg/kg, 14 days
  Aspartate Transaminase (AST): 20 U/L
  Alanine Transaminase (ALT): 50 U/L
[3]; 0.05 mg/kg, Pre-dose
  Aspartate Transaminase (AST): 33 U/L
  Alanine Transaminase (ALT): 58 U/L
[3]; 0.5 mg/kg, 2 days
  Aspartate Transaminase (AST): 794 U/L
  Alanine Transaminase (ALT): 63 U/L
[3]; 0.5 mg/kg, 4 days
  Aspartate Transaminase (AST): 63 U/L
  Alanine Transaminase (ALT): 70 U/L
[3]; 0.5 mg/kg, 7 days
  Aspartate Transaminase (AST): 68 U/L
  Alanine Transaminase (ALT): 41 U/L
[3]; 0.5 mg/kg, 14 days
  Aspartate Transaminase (AST): 67 U/L
  Alanine Transaminase (ALT): 43 U/L
[3]; 0.5 mg/kg, Pre-dose
  Aspartate Transaminase (AST): 47 U/L
  Alanine Transaminase (ALT): 29 U/L
[3]; 0.05 mg/kg, 2 days
  Alanine Transaminase (ALT): 82 U/L
[4]; 8 hours
  Female NHP Serum Concentration: 3289 pg/mL
  Male NHP Serum Concentration: 1722 pg/mL
[4]; 48 hours
  Female NHP Serum Concentration: 0 pg/mL
  Male NHP Serum Concentration: 0 pg/mL
[4]; 72 hours
  Female NHP Serum Concentration: 0 pg/mL
  Male NHP Serum Concentration: 0 pg/mL
[4]; Pre-bleed
  Female NHP Serum Concentration: 0 pg/mL
  Male NHP Serum Concentration: 0 pg/mL
[4]; NHP IV, LNP, 0.05 mg/kg
  time out to which protein expression was detectable: 24 h
[5]
  innate immune recognition, cytokines (IFN-alpha): induced IFN-alpha, TNF-alpha and IP10
[6]; 100 μg (Luc-unsp 150 μg), I. V.
  Human G-CSF in Serum: 31.0 pg/mL
[6]; 100 μg, S. C.
  Human G-CSF in Serum: 3.9 pg/mL

Source: US20200164038A1, “MODIFIED NUCLEOSIDE, NUCLEOTIDE, AND NUCLEIC ACID COMPOSITIONS” (ModernaTX, Inc., priority 2011, published 2020)
